Reference: paper PMC2137827
Values joined by “and” are separate entries in the source; they are usually repeats but may differ in a detail not shown here. Equal values may be shown once. Read-outs that look alike come from different tables or passages of the source.

Key:
[1] = molecular target: IQGAP1 (native, from bovine adrenal) (bovine (endogenous in adrenal)); assay: co-purification with quantitative immunoblot
[2] = molecular target: IQGAP1 (native, from bovine adrenal) (bovine (endogenous in adrenal)); assay: co-purification with quantitative immunoblot; remark: listed apart in the source
[3] = molecular target: F-actin assembled from purified rabbit skeletal muscle actin (rabbit) (UniProt P68135); assay: co-sedimentation
[4] = molecular target: IQGAP1 (native, from bovine adrenal) (bovine (endogenous in adrenal)); assay: AUC

| stoichiometry N (mol calmodulin per mol 190K) [1] | stoichiometry N (mol calmodulin per mol 190K) [2] | percent of IQGAP1 able to bind F-actin (other experiments) [3] [%] | stoichiometry N (subunits per molecule) [4] | Substance |
| --- | --- | --- | --- | --- |
| 0.067 and 0.042 and 0.026 | 0.05 |  |  | Calmodulin co-purifying with native IQGAP1 from bovine adrenal (from UniProt P62157 1-149) (natural protein) |
|  |  | 85 | 2 | IQGAP1 (native, from bovine adrenal) (natural protein) |
